From patent US7521540B2, “CYR61 compositions and methods” (Munin Corporation, priority 1996, dated 2009)

Assays:
macrophages = experiment: Macrophage binding, antibody inhibition studies; format: cell-based
From the text: It is also expected that Cyr61 will promote the migration of macrophages, thus serving a role in attracting and retaining macrophages at the site of a wound. Consequently, Cyr61 is expected to play a role in the inflammatory response of mammals, and modulation of Cyr61 activity is expected to influence the inflammatory response.

Limb mesenchymal cells = experiment: Limb bud mesenchymal cell attachment; format: cell-based, mouse; conditions: within 1 hour of plating
Experimental: Cyr61, fibronectin (Gibco), or tenascin (Gibco) were diluted in 0.1% protease-free bovine serum albumin (BSA) in PBS with 0.5 mM PMSF, to a final concentrations of 10 or 50 μg/ml. A 10 μl drop/well was placed in a non-tissue culture treated 24-well plate (Corning), and incubated at room temperature for 2 hours. The wells were blocked with 1% BSA in PBS for 1 hour at room temperature, and rinsed with serum-free MEM (Modified Eagle's Medium). Limb mesenchymal cells, suspended at 5×10^5 cell/ml in serum-free MEM, were added at a volume of 400 μl/well, and incubated at 37° C., 5% CO2 for 1 or 3 hours. At each time point, the cell suspension was removed, the wells were rinsed with MEM and the remaining adherent cells were photographed.

[1] = test system: Human Microvascular Endothelial Cells; experiment: Endothelial cell migration, inverted modified Boyden chamber; format: cell-based
Experimental: In an alternative in vitro assay for angiogenic activity, an assay for endothelial cell migration was developed. […] Primary Human Microvascular Endothelial Cells (HMVEC PO51, Clonetics, San Diego, Calif.) were maintained in DME with 10% donor calf serum (Flow Laboratories, McLean, Va.) and 100 μg/ml endothelial celi mitogen (Biomedical Technologies Inc., Stoughton, Mass.). The cells were used between passages 10 and 15. To measure migration, cells were starved for 24 hours in DME containing 0.1% BSA, harvested, resuspended in DME with 0.1% BSA, and plated at 1.75×10^4 cells/well on the lower surface of a gelatinized 0.5 μm filter (Nucleopore Corporation, Pleasanton. Calif.) in an inverted modified Boyden chamber. After 1-2 hours at 37° C., during which time the cells were allowed to adhere to the filter, the chamber was reverted to its normal position. To the top well of separate chambers, basic Fibroblast Growth Factor (a positive control), Cyr61, or a negative control solution (conditioned medium known to lack chemoattractants or DME plus BSA, see below) was added at concentrations ranging from 10 ng/ml to 10 μg/ml. Chambers were then incubated for 3-4 hours at 37° C. to allow migration. Chambers were disassembled, membranes fixed and stained, and the number of cells that had migrated to the top of the filter in 3 high-powered fields was determined. Tolsma et al., J. Cell. Biol. 122:497-511 (1993) (incorporated by reference), and references cited therein. DME with 0.1% BSA was used as a negative control and either bFGF (10 ng/ml) or conditioned media from angiogenic hamster cell lines (20 μg/ml total protein) were used as positive controls. Rastinejad et al., Cell 56:345-355 (1989). Each sample was tested in quadruplicate (test compound such as Cyr61, positive control, conditioned medium as a negative control, and DME plus BSA as a negative control) in a single experiment; experiments were repeated at least twice.
To allow comparison of experiments performed on different days, migration data is reported as the percent of maximum migration towards the positive control, calculated after subtraction of background migration observed in the presence of DME plus BSA. […] Very high concentrations of thrombospondin (TSP) caused endothelial cells to detach from the membrane. Detachment was detected by counting cells on the lower face of the membrane. When cell loss exceeded 10%, the number of migrated cells was corrected for this loss. […] At 10 ng/ml, Cyr61 induced an average of 64 cells to migrate per three high-powered fields examined.

[2] = test system: primary human foreskin fibroblasts; experiment: Cyr61-regulated gene expression (multi-gene blot, Northern); format: cell-based
Experimental: Purified, soluble, recombinant Cyr61 protein was added to cultures of primary human foreskin fibroblasts for 24 hours. From these cells, mRNA was isolated for preparation of probes to hybridize to a multi-gene blot (Clontech Atlas Human Array 1.2 cat no. 7850-1) containing about 650 genes. The levels of expression of these genes in Cyr61-treated cells were compared to that of control cells. […] These findings have been confirmed by Northern blot analysis showing increases or decreases of the mRNAs in question in Cyr61-treated cells. A time course of expression changes has been established. In particular, by 6 hours after its addition, Cyr61 has induced expression of VEGF-A mRNA and the induction is still evident at 12 and 24 hours post-addition. Also at 12 and 24 hours post-addition, Cyr61 has induced expression of VEGF-A polypeptide. With respect to VEGF-C, induction of mRNA is clearly evident 12 hours after addition of Cyr61 and the induction persists at least through 24 hours post-addition. Cyr61 is expected to induce the expression of VEGF-C polypeptide with similar kinetics.

[3] = test system: Bovine aortic smooth muscle cells (BASM cells); experiment: Smooth muscle cell adhesion assay; format: cell-based
Experimental: Cell adhesion assays were also performed on smooth muscle cells. Bovine aortic smooth muscle cells (BASM cells) were subjected to the cell adhesion assay described above in the context of assaying fibroblasts. […] To identify particular integrin, receptors mediating the Cyr61 induction of BASM cell adhesion, antibody studies were conducted using anti-integrin antibodies recognizing specific integrins. […] Thus, integrin α6β1 mediates Cyr61-induced adhesion of smooth muscle cells. It is expected that Cyr61 polypeptides that include the heparan binding domain IV will induce adhesion of any mammalian smooth muscle cell.

B1: Cyr61: Cysteine-rich ECM signaling protein; murine sequence SEQ ID NO:2, recombinant from Baculovirus-infected Sf9 cells (protein, listed as Mus musculus)
chain: MSSSTFRTLAVAVTLLHLTRLALSTCPAACHCPLEAPKCAPGVGLVRDGCGCCKVCAKQLNEDCSKTQPCDHTKGLECNFGASSTALKGICRAQSEGRPCEYNSRIYQNGESFQPNCKHQCTCIDGAVGCIPLCPQELSLPNLGCPNPRLVKVSGQCCEEWVCDEDSIKDSLDDQDDLLGLDASEVELTRNNELIAIGKGSSLKRLPVFGTEPRVLFNPLHAHGQKCIVQTTSWSQCSKSCGTGISTRVTNDNPECRLVKETRICEVRPCGQPVYSSLKKGKKCSKTKKSPEPVRFTYAGCSSVKKYRPKYCGSCVDGRCCTPLQTRTVKMRFRCEDGEMFSKNVMMIQSCKCNYNCPHPNEASFRLYSLFNDIHKFRD
B1 was tested, and the “binding to macrophages” value (macrophages) was “binds to macrophages via yet another integrin, the αMβ2 integrin”, the “attachment morphology of limb mesenchymal cells” value (Limb mesenchymal cells) was “adhered as clusters of rounded cells” and the “migrated cells per three high-powered fields” value ([1]; 10 ng/ml) was 64 cells. The “migrated cells per three high-powered fields” value ([1]; 100 ng/ml) was “approximately 72 cells”, the “migrated cells per three high-powered fields” value ([1]; 1 μg/ml) was 87 cells and the “migrated cells per three high-powered fields” value ([1]; 10 μg/ml) was “approximately 57 cells”. The “migrated cells per three high-powered fields” value ([1]; approximately 7 μg/ml) was “about 61 cells”, the “time after addition at which VEGF-A mRNA is induced” value [2] was no more than 6 h and the “time after addition at which VEGF-C mRNA induction is clearly evident” value [2] was 12 h. The “expression of angiogenic molecules” value ([2]; soluble Cyr61, 24 hours) was “induction of the angiogenic molecules VEGF1 and VEGF3”, the “expression of inflammation-related cytokines” value ([2]; soluble Cyr61, 24 hours) was “induction of the inflammation-related cytokines IL-1 and IL-6” and the “expression of matrix degrading enzymes” value ([2]; soluble Cyr61, 24 hours) was “upregulation of matrix degrading enzymes including MMP1, MMP3, and uPA”. The “expression of matrix protein genes” value ([2]; soluble Cyr61, 24 hours) was “downregulation of matrix protein genes such as the type I collagen chain gene” and the “adhesion of BASM cells” value [3] was “induced adhesion of BASM cells”.
